Laboratory results from PMC7954794, “Protein context shapes the specificity of SH3 domain-mediated interactions in vivo” (Nature Communications, 2021).

B1: S. cerevisiae Abp1 (full length; SH3 domain 535-592 mutated) / Hua2 (parent)
chain 1: MALEPIDYTTHSREIDAEYLKIVRGSDPDTTWLIISPNAKKEYEPESTGSSFHDFLQLFDETKVQYGLARVSPPGSDVEKIIIIGWCPDSAPLKTRASFAANFAAVANNLFKGYHVQVTARDEDDLDENELLMKISNAAGARYSIQTSSKQQGKASTPPVKKSFTPSKSPAPVSKKEPVKTPSPAPAAKISSRVNDNNDDDDWNEPELKERDFDQAPLKPNQSSYKPIGKIDLQKVIAEEKAKEDPRLVQKPTAAGSKIDPSSDIANLKNESKLKRDSEFNSFLGTTKPPSMTESSLKNDDDKVIKGFRNEKSPAQLWAERKAKQNSGNAETKAEAPKPEVPEDEPEGEPDVKDLKSKFEGLAASEKEEEEMENKFAPPPKKSEPTIISPKPFSKPQEPVKAEEAEQPKTDYKKIGNPLPGMHIEADNEEEPEENDDDWDDDEDEAAQPPLPSRNVASGAPVQKEEPEQEEIAPSLPSRNSIPAPKQEEAPEQAPEEEIEEEAEEAAPQLPSRSSAAPPPPPRRATPEKKPKENPWATAEYDYDAAEDNELTFVENDKIINIEFVDDDWWLGELEKDGSKGLFPSNYVSLGN
chain 2: MQQTKFGKMYLDHDSVVEYSEDEIVEADRITLGYKKRLSMIENQMRHLLEDFSLDVQQIEPILADLQKYYDAFLQLLQKRNKSLQCKRSTHQPVPSPMNSQTSTNAKVNLSGKLMKFQLNSVQKFDEENILRILQNKIEFEHYFQIDKGKKQKVLLLAVYQCLNGPTRLHKVLNIEGIIHNNSIRTILGKQVSSSKWTVFLYDVKLVLLAHRQDVPNLETSKMIVRYGDLFPCALYFKDHTAY

Variants of: B1
Test: DHFR protein-fragment complementation in yeast (Abp1-DHFR F[1,2] x partner-DHFR F[3]), deep mutational scanning, second methotrexate selection vs reference
Conditions: with Hua2; S. cerevisiae, DHFR-PCA selection in liquid with methotrexate at 30 C, two 72 h selections (the score uses the second); reference = the pre-selection culture; not an affinity; value at the no-binding floor (a bound); scale: DMS score: mean over two replicates of log2(f_test/f_ref + 0.5)/ln 2, minus the synonymous-codon median

Question: chain 1 MALEPIDYTTHSREIDAEYLKIVRGSDPDTTWLIISPNAKKEYEPESTGSSFHDFLQLFDETKVQYGLARVSPPGSDVEKIIIIGWCPDSAPLKTRASFAANFAAVANNLFKGYHVQVTARDEDDLDENELLMKISNAAGARYSIQTSSKQQGKASTPPVKKSFTPSKSPAPVSKKEPVKTPSPAPAAKISSRVNDNNDDDDWNEPELKERDFDQAPLKPNQSSYKPIGKIDLQKVIAEEKAKEDPRLVQKPTAAGSKIDPSSDIANLKNESKLKRDSEFNSFLGTTKPPSMTESSLKNDDDKVIKGFRNEKSPAQLWAERKAKQNSGNAETKAEAPKPEVPEDEPEGEPDVKDLKSKFEGLAASEKEEEEMENKFAPPPKKSEPTIISPKPFSKPQEPVKAEEAEQPKTDYKKIGNPLPGMHIEADNEEEPEENDDDWDDDEDEAAQPPLPSRNVASGAPVQKEEPEQEEIAPSLPSRNSIPAPKQEEAPEQAPEEEIEEEAEEAAPQLPSRSSAAPPPPPRRATPEKKPKENPWATAEYDYDAAEDNELTQVENDKIINIEFVDDDWWLGELEKDGSKGLFPSNYVSLGN [chain 1 F553Q] was tested. Which screen value did it give?
Answer: < -3.06

Question: Which screen value does the source give for chain 1 MALEPIDYTTHSREIDAEYLKIVRGSDPDTTWLIISPNAKKEYEPESTGSSFHDFLQLFDETKVQYGLARVSPPGSDVEKIIIIGWCPDSAPLKTRASFAANFAAVANNLFKGYHVQVTARDEDDLDENELLMKISNAAGARYSIQTSSKQQGKASTPPVKKSFTPSKSPAPVSKKEPVKTPSPAPAAKISSRVNDNNDDDDWNEPELKERDFDQAPLKPNQSSYKPIGKIDLQKVIAEEKAKEDPRLVQKPTAAGSKIDPSSDIANLKNESKLKRDSEFNSFLGTTKPPSMTESSLKNDDDKVIKGFRNEKSPAQLWAERKAKQNSGNAETKAEAPKPEVPEDEPEGEPDVKDLKSKFEGLAASEKEEEEMENKFAPPPKKSEPTIISPKPFSKPQEPVKAEEAEQPKTDYKKIGNPLPGMHIEADNEEEPEENDDDWDDDEDEAAQPPLPSRNVASGAPVQKEEPEQEEIAPSLPSRNSIPAPKQEEAPEQAPEEEIEEEAEEAAPQLPSRSSAAPPPPPRRATPEKKPKENPWATAEYDYDAAEDNELTRVENDKIINIEFVDDDWWLGELEKDGSKGLFPSNYVSLGN [chain 1 F553R] here?
Answer: < -3.06

Question: chain 1 MALEPIDYTTHSREIDAEYLKIVRGSDPDTTWLIISPNAKKEYEPESTGSSFHDFLQLFDETKVQYGLARVSPPGSDVEKIIIIGWCPDSAPLKTRASFAANFAAVANNLFKGYHVQVTARDEDDLDENELLMKISNAAGARYSIQTSSKQQGKASTPPVKKSFTPSKSPAPVSKKEPVKTPSPAPAAKISSRVNDNNDDDDWNEPELKERDFDQAPLKPNQSSYKPIGKIDLQKVIAEEKAKEDPRLVQKPTAAGSKIDPSSDIANLKNESKLKRDSEFNSFLGTTKPPSMTESSLKNDDDKVIKGFRNEKSPAQLWAERKAKQNSGNAETKAEAPKPEVPEDEPEGEPDVKDLKSKFEGLAASEKEEEEMENKFAPPPKKSEPTIISPKPFSKPQEPVKAEEAEQPKTDYKKIGNPLPGMHIEADNEEEPEENDDDWDDDEDEAAQPPLPSRNVASGAPVQKEEPEQEEIAPSLPSRNSIPAPKQEEAPEQAPEEEIEEEAEEAAPQLPSRSSAAPPPPPRRATPEKKPKENPWATAEYDYDAAEDNELTTVENDKIINIEFVDDDWWLGELEKDGSKGLFPSNYVSLGN [chain 1 F553T] was tested. Which screen value did it give?
Answer: -3.01

Question: How did the screen value turn out when chain 1 MALEPIDYTTHSREIDAEYLKIVRGSDPDTTWLIISPNAKKEYEPESTGSSFHDFLQLFDETKVQYGLARVSPPGSDVEKIIIIGWCPDSAPLKTRASFAANFAAVANNLFKGYHVQVTARDEDDLDENELLMKISNAAGARYSIQTSSKQQGKASTPPVKKSFTPSKSPAPVSKKEPVKTPSPAPAAKISSRVNDNNDDDDWNEPELKERDFDQAPLKPNQSSYKPIGKIDLQKVIAEEKAKEDPRLVQKPTAAGSKIDPSSDIANLKNESKLKRDSEFNSFLGTTKPPSMTESSLKNDDDKVIKGFRNEKSPAQLWAERKAKQNSGNAETKAEAPKPEVPEDEPEGEPDVKDLKSKFEGLAASEKEEEEMENKFAPPPKKSEPTIISPKPFSKPQEPVKAEEAEQPKTDYKKIGNPLPGMHIEADNEEEPEENDDDWDDDEDEAAQPPLPSRNVASGAPVQKEEPEQEEIAPSLPSRNSIPAPKQEEAPEQAPEEEIEEEAEEAAPQLPSRSSAAPPPPPRRATPEKKPKENPWATAEYDYDAAEDNELTWVENDKIINIEFVDDDWWLGELEKDGSKGLFPSNYVSLGN [chain 1 F553W] was run?
Answer: < -3.06

Question: How did the screen value turn out when chain 1 MALEPIDYTTHSREIDAEYLKIVRGSDPDTTWLIISPNAKKEYEPESTGSSFHDFLQLFDETKVQYGLARVSPPGSDVEKIIIIGWCPDSAPLKTRASFAANFAAVANNLFKGYHVQVTARDEDDLDENELLMKISNAAGARYSIQTSSKQQGKASTPPVKKSFTPSKSPAPVSKKEPVKTPSPAPAAKISSRVNDNNDDDDWNEPELKERDFDQAPLKPNQSSYKPIGKIDLQKVIAEEKAKEDPRLVQKPTAAGSKIDPSSDIANLKNESKLKRDSEFNSFLGTTKPPSMTESSLKNDDDKVIKGFRNEKSPAQLWAERKAKQNSGNAETKAEAPKPEVPEDEPEGEPDVKDLKSKFEGLAASEKEEEEMENKFAPPPKKSEPTIISPKPFSKPQEPVKAEEAEQPKTDYKKIGNPLPGMHIEADNEEEPEENDDDWDDDEDEAAQPPLPSRNVASGAPVQKEEPEQEEIAPSLPSRNSIPAPKQEEAPEQAPEEEIEEEAEEAAPQLPSRSSAAPPPPPRRATPEKKPKENPWATAEYDYDAAEDNELTFVENDKIINIEFVDDDWWLGELEKDGSKGLAPSNYVSLGN [chain 1 F583A] was run?
Answer: < -3.06
